Key:
murine rIL-16 = target: T1, murine rIL-16 (Mus musculus, UniProt O54824); test: IL-16-stimulated T-lymphocyte migration, human CD4 D4 point mutants; type: cell-based; settings: human CD4 D4 wild type or point mutant, rIL-16 10^-9 M
T1 construct: polyhistidine fusion protein containing the 119 C-terminal residues encoded by the previously reported murine cDNA; polyhistidine (cleaved yes); made in house; host or cells: Escherichia coli strain HMS 174, vector pET16b
T1 sequence (O54824 1204-1322): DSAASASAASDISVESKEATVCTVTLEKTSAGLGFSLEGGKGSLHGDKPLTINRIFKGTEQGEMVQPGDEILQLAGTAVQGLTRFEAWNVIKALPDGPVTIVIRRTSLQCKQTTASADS
Protocol: Point mutations at Leu 348 and Leu 349 in human CD4 were prepared as follows.
Initially 100 ng of wild type human CD4 cDNA (Richard Axel, Columbia University, N.Y.) contained within the mammalian expression vector pcDNA3.1(−) (Invitrogen, Carlsbad, Calif.) was subjected to the polymerase chain reaction (PCR) in the presence of 125 ng of each set of primer pairs. PCR conditions were as follows:
The time for the elongation step varied according to the relationship of 2 minutes per kilobase of plasmid DNA length. The product was then subjected to restriction digestion with the enzyme Dpn for 1 h. at 37° C. Dpn is specific for methylated nucleotides and therefore will only cut the original wide type CD4-plasmid DNA. The transformation reaction required the addition of 1 μl of the digest to 50 μl of Epicurean Blue Eschericia coli which was incubated on ice for 30 min. and finally heat shocked 42° C., 45 sec to seal the supercompent bacteria. The resultant bacteria culture was selected on ampicillin plates and sequenced to confirm mutagenesis.
Cell migration was assessed using a modified Boyden chamber. […] Cell migration is expressed as the mean % control migration.
Results from multiple experiments were analyzed using Student's t test for paired variables, and Tukey's test for multiple variables. A P value<0.05 was considered significant.
(FIGS. 10A and 10B). […] (FIGS. 11A and 11B).

HIV-1 gp120 = HIV-1 gp120 (Human immunodeficiency virus type 1 group M subtype B, UniProt P04578); settings: human CD4 point mutant
Protocol: Cell migration was assessed using a modified Boyden chamber. (Center, et al., (1982) J. Immunol. 128:2563-2568; Cruikshank, et al., (1982) J. Immunol. 128:2569-2574). […] For blocking experiments, 10^−9 M murine rIL-16 with various concentrations of oligopeptides were mixed and placed in the lower well. The upper and lower wells were separated by 8 μm pore size nitrocellulose filter membrane (Neuro Probe). Following incubation (3 h, 37° C.), the membranes were removed, stained with hematoxylin, and dehydrated. Cell migration was quantified by counting the number of cells migrating beyond a depth of 40 μm. Counts were compared with control cells exposed to M199-HPS alone, which was normalized to 100%. Cell migration is expressed as the mean % control migration. All samples were tested in duplicate, with five high power fields counted in each duplicate.

B1: NLTCEVWGPTSPKLMLSLKLENKEAKVSKREKAVWVLNPEAGMWNCLLSDSGQVLLESNIKVLPTWSTPVQPM (peptide)
chain: NLTCEVWGPTSPKLMLSLKLENKEAKVSKREKAVWVLNPEAGMWNCLLSDSGQVLLESNIKVLPTWSTPVQPM
modifications: OTHER INFORMATION: Description of Artificial Sequence:IL-16 antagonist peptide
notes: human CD4 D4 with glutamine 346 to asparagine
inhibition of IL-16-stimulated T-lymphocyte migration (murine rIL-16): IL-16-inhibitory activity
inhibition of IL-16-stimulated T-lymphocyte migration (murine rIL-16; listed as human CD4 (Q346→N)): no loss in inhibition
inhibition of HIV-1 gp120-stimulated T-lymphocytes (HIV-1 gp120): no loss in inhibition
